From article PMC3325190 (PLoS Pathogens, 2012)
[ ]: non-standard residue; d: D form. SeMet = C[Se]CC[C@H](N)C(=O)O

How the values were obtained:
[1] = target: T1, AmrZ WT (Pseudomonas aeruginosa PAO1, UniProt G3XCY4 1-108); experiment: fluorescence anisotropy; conditions: protein: recombinant; tags: N-terminal poly-His with 3C site, cleaved by PreScission; chain copies: 4; blunt
T1 sequence: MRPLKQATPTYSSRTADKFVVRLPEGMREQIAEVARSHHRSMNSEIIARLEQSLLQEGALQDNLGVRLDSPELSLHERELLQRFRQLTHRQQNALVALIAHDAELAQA

[2] = target: the molecule itself; experiment: crystal structure; Se-Met Δ42 AmrZ in complex with 18 bp amrZ1 DNA; hanging drop vapor diffusion at 25°C, 3% PEG8K, 0.1 M MES pH 6.0, 0.15 M NaCl, 2 mM TCEP, 50 mM MgSO4; 3.1 Å; dimer and dimer of dimers seen on the DNA
[3] = target: T2, AmrZ delta42 (Pseudomonas aeruginosa PAO1, UniProt G3XCY4 1-66); experiment: X-ray crystal structure (3.1 A); 50 mM MgSO4; SeMet protein; 100 mM Bis-Tris pH 6.5, 150 mM NaCl, 5% glycerol, 100 ug/ml BSA, 100 nM nonspecific DNA, 1 nM 6-FAM 22-mer, 25 C; conditions: protein: recombinant; tags: N-terminal poly-His with 3C site, cleaved by PreScission; chain copies: 4
T2 sequence: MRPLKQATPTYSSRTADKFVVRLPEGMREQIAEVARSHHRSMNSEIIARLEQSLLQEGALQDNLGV

| Binder | Kd [1] [nM] | other results |
| --- | --- | --- |
| TTC amrZ1 (dsDNA) DNA 1: GTACTTTCAAAACGAAGGCACG DNA 2: CGTGCCTTCGTTTTGAAAGTAC | 109 ± 13 | – |
| m13 algD (dsDNA) DNA 1: CATTGGCCATTAACAGCCTCCC DNA 2: GGGAGGCTGTTAATGGCCAATG | 256 ± 20 | – |
| m6 algD (dsDNA) DNA 1: CATTGTCCATTACCAGCCTCCC DNA 2: GGGAGGCTGGTAATGGACAATG | 723 ± 37 | – |
| m8 algD (dsDNA) DNA 1: CATTGGCAATTACCAGCCTCCC DNA 2: GGGAGGCTGGTAATTGCCAATG | 365 ± 30 | – |
| m16 algD (dsDNA) DNA 1: CATTGGCCATTACCATCCTCCC DNA 2: GGGAGGATGGTAATGGCCAATG | 203 ± 17 | – |
| WT amrZ1 (dsDNA) DNA 1: GTACTGGCAAAACGCCGGCACG DNA 2: CGTGCCGGCGTTTTGCCAGTAC | 8.41 ± 0.8 | – |
| m17 algD (dsDNA) DNA 1: CATTGGCCATTACCAGACTCCC DNA 2: GGGAGTCTGGTAATGGCCAATG | 212 ± 19 | – |
| TTC/GC amrZ1 (dsDNA) DNA 1: GTACTTTCCGCGCGAAGGCACG DNA 2: CGTGCCTTCGCGCGGAAAGTAC | 2050 ± 180 | – |
| CGCG amrZ1 (dsDNA) DNA 1: GTACTGGCCGCGCGCCGGCACG DNA 2: CGTGCCGGCGCGCGGCCAGTAC | 63.4 ± 7.3 | – |
| Δ42 AmrZ (C-terminal truncation mutant of AmrZ, residues 1–66) (domain or fragment, not shown: poly-Histidine, N-terminal, cleaved) [SeMet]RPLKQATPTYSSRTADKFVVRLPEG[SeMet]REQIAEVARSHHRS[SeMet]NSEIIARLEQSLLQEGALQDNLGV | – | stoichiometry N [2]: 4 |
| m7 algD (dsDNA) DNA 1: CATTGGACATTACCAGCCTCCC DNA 2: GGGAGGCTGGTAATGTCCAATG | 530 ± 52 | – |
| AATT amrZ1 (dsDNA) DNA 1: GTACTGGCAATTCGCCGGCACG DNA 2: CGTGCCGGCGAATTGCCAGTAC | 58.6 ± 7.5 | – |
| ATAT amrZ1 (dsDNA) DNA 1: GTACTGGCATATCGCCGGCACG DNA 2: CGTGCCGGCGATATGCCAGTAC | 39.1 ± 4.6 | – |
| GTC amrZ1 (dsDNA) DNA 1: GTACTGTCAAAACGACGGCACG DNA 2: CGTGCCGTCGTTTTGACAGTAC | 82.7 ± 8.6 | – |
| m14 algD (dsDNA) DNA 1: CATTGGCCATTACAAGCCTCCC DNA 2: GGGAGGCTTGTAATGGCCAATG | 216 ± 17 | – |
| amrZ1 18 bp crystal oligo (dsDNA) DNA 1: ACTGGCAAAACGCCGGCA DNA 2: TGCCGGCGTTTTGCCAGT | – | binding result [3]: binds |
| WT algD (dsDNA) DNA 1: CATTGGCCATTACCAGCCTCCC DNA 2: GGGAGGCTGGTAATGGCCAATG | 198 ± 14 | – |
| m5 algD (dsDNA) DNA 1: CATTTGCCATTACCAGCCTCCC DNA 2: GGGAGGCTGGTAATGGCAAATG | 164 ± 17 | – |
| TTTT amrZ1 (dsDNA) DNA 1: GTACTGGCTTTTCGCCGGCACG DNA 2: CGTGCCGGCGAAAAGCCAGTAC | 41.7 ± 5.1 | – |
